In US20070020258A1:

Columns and labels:
[1] = biological target: FcεRI alpha chain on CHO 3D10 cells (UniProt P12319); assay: FACS, CHO 3D10 cells, 0.1 ug/ml
[2] = biological target: FcεRI alpha chain on CHO 3D10 cells (UniProt P12319); assay: FACS, CHO 3D10 cells, 5 ug/ml
[3] = biological target: FcεRI alpha chain on CHO 3D10 cells (UniProt P12319); assay: FACS, CHO 3D10 cells, 10 ug/ml
[4] = biological target: FcεRII (CD23) on IM9 B cells (human) (UniProt P06734); assay: FACS, IM9 cells, 10 ug/ml
[5] = biological target: FcεRII (CD23) on IM9 B cells (human) (UniProt P06734); assay: FACS, IM9 cells, 5 ug/ml
[6] = biological target: FcεRII (CD23) on IM9 B cells (human) (UniProt P06734); assay: FACS, IM9 cells, 0.1 ug/ml
[7] = biological target: FcεRI alpha chain on CHO 3D10 cells (UniProt P12319); assay: FACS, CHO 3D10 cells, 0.5 ug/ml

Chain of FcεRI alpha chain on CHO 3D10 cells (P12319 26-257 limits assumed): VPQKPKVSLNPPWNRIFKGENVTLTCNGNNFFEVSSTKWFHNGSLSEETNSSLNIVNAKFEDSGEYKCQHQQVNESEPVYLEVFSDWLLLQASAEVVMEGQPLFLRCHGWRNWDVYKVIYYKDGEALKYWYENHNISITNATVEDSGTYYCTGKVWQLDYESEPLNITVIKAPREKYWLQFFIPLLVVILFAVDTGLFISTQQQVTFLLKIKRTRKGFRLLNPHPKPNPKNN
Chain of FcεRII (CD23) on IM9 B cells (human) (P06734 whole entry): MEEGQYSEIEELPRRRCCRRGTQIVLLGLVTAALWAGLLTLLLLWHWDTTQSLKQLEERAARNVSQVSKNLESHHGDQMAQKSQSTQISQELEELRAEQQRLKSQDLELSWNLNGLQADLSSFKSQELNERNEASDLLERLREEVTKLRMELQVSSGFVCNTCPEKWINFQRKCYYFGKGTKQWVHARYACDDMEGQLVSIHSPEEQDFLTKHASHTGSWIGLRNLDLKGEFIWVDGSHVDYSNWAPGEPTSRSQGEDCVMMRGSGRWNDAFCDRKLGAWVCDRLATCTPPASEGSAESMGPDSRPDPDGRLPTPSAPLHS

- % CHO 3D10(+) [1]: 15.8%
- % CHO 3D10(+) [2]: 89.9%
- % CHO 3D10(+) [3]: 90.3%
- % IM9 (+) [4]: 92.5%
- % IM9 (+) [5]: 82.6%
- % IM9 (+) [6]: 1.7%
- % CHO 3D10(+) [7]: 59.6%
Substance: human IgE purified from U266B1 cells (from UniProt P01854 1-428) (antibody)
